From the supplement of paper PMC7877785
± gives the uncertainty stated by the source.

Assay: self-splicing fitness, log relative to wild type (ln ratio); higher = more splicing; Tetrahymena group I intron in knt gene, E. coli kanamycin selection, DiMSum; sequences stand for … in CUCUCU…GGAGGGAAAAGUUAUCAGGCAUGCACCUGGUAGCUAGUCUUUAAACCAAUAGAUUGCAUCGGUUUAAAAGGCAAGACCGUCAAAUUGCGGGAAAGGGGUCAACAGCCGUUCAGUACCAAGUCUCAGGGGAAACUUUGAGAUGGCCUUGCAAAGGGUAUGGUAAUAAGCUGACGGACAUGGUCCUAACCACGCAGCCAAGUCCUAAGUCAACAGAUCUUCUGUUGAUAUGGAUGCAGUUCACAGACUAAAUGUCGGUCGGGGAAGAUGUAUUCUUCUCAUAAGAUAUAGUCGGACCUCUCCUUAAUGGGAGCUAGCGGAUGAAGUGAUGCAACACUGGAGCCGCUGGGAACUAAUUUGUAUGCGAAAGUAUAUUGAUUAGUUUUGGAGUACUCGUGGUCG
Summary of the method: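 Fitness was computed with DiMSum as the error-weighted combination of replicate fold changes, kanamycin versus none, each normalised to wild type. The library randomised all eight intron nucleotides of the P1ex region, with the intron placed in the knt kanamycin-resistance gene on pET-22b(+) in E. coli BL21(DE3). Six replicate transformations were grown overnight at 37°C or 30°C on LB agar with or without 25 μg/mL kanamycin, plus 100 μg/mL carbenicillin, 50 μM IPTG and 0.2% rhamnose. Pooled colonies were amplicon-sequenced on an Illumina HiSeq 2500.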

Sequence	self-splicing fitness (ln) (30 °C)	self-splicing fitness (ln) (37 °C)
CAUGAGCAAUAUUACGCUGG	-3.36 ± 0.17	-2.58 ± 0.18
CAUGAGCAAUAUUACGCUUG	-2.74 ± 0.14	-2.97 ± 0.21
CAUGAGCAAUAUUACGGAAC	-3.01 ± 0.33	-2.65 ± 0.35
CAUGAGCAAUAUUACGGAAU	-4.62 ± 0.36	-2.58 ± 0.28
CAUGAGCAAUAUUACGGACA	-3.32 ± 0.48	-0.812 ± 0.25
CAUGAGCAAUAUUACGGCCA		-1.36 ± 0.41
CAUGAGCAAUAUUACGGCCU	-2.67 ± 0.19	-2.19 ± 0.25
CAUGAGCAAUAUUACGUCUG	-1.41 ± 0.073	-1.06 ± 0.073
CAUGAGCAAUAUUACGUGGG	-4.29 ± 0.27	-3.23 ± 0.32
CAUGAGCAAUAUUACGUUAU	-3.12 ± 0.14	-2.54 ± 0.24
CAUUAGCAAUAUUACGAACU	-2.29 ± 0.31	-2.63 ± 0.36
CAUUAGCAAUAUUACGAAUU	-2.07 ± 0.22	-1.2 ± 0.17
CAUUAGCAAUAUUACGACGA	-2.25 ± 0.28	-1.6 ± 0.2
CAUUAGCAAUAUUACGAGCA	-3.42 ± 0.23	-2.28 ± 0.14
CAUUAGCAAUAUUACGAGCU	-2.57 ± 0.33	-2.7 ± 0.44
CAUUAGCAAUAUUACGAUAU	-2.91 ± 0.2	-3.27 ± 0.3
CAUUAGCAAUAUUACGCAUA	-2.03 ± 0.18	-1.06 ± 0.15
CAUUAGCAAUAUUACGCUGU	-2.72 ± 0.13	-2.21 ± 0.18
CAUUAGCAAUAUUACGCUUU	-3.35 ± 0.23	-1.06 ± 0.16
CAUUAGCAAUAUUACGGAGU	-3.87 ± 0.19	-2.7 ± 0.2
CAUUAGCAAUAUUACGGCCG	0.721 ± 0.13	0.409 ± 0.14
CAUUAGCAAUAUUACGGGCC	-2.71 ± 0.23	-2.95 ± 0.43

Sequence	self-splicing fitness (ln) (30 °C)	self-splicing fitness (ln) (37 °C)
CAUUAGCAAUAUUACGGGGU	-3.26 ± 0.17	-2.25 ± 0.17
CAUUAGCAAUAUUACGGUCC		-1.72 ± 0.34
CAUUAGCAAUAUUACGGUCG	-0.452 ± 0.14	0.576 ± 0.14
CAUUAGCAAUAUUACGUAAA	-2.93 ± 0.15	-1.34 ± 0.15
CAUUAGCAAUAUUACGUACA	-2.7 ± 0.21	-2.58 ± 0.2
CAUUAGCAAUAUUACGUCGU	-4.03 ± 0.26	-0.437 ± 0.17
CAUUAGCAAUAUUACGUCUG	-0.197 ± 0.062	0.00612 ± 0.072
CAUUAGCAAUAUUACGUGCC	-2.77 ± 0.29	-2.26 ± 0.45
CAUUAGCAAUAUUACGUGGC	-2.79 ± 0.36	-2.09 ± 0.33
CAUUAGCAAUAUUACGUUAU		-1.91 ± 0.22
CAUUAGCAAUAUUACGUUGU	-3.95 ± 0.23	-2.75 ± 0.22
CCAAAGCAAUAUUACGAAAC	-3.13 ± 0.2	-2.95 ± 0.34
CCAAAGCAAUAUUACGAAAG	-1.14 ± 0.088	-0.678 ± 0.11
CCAAAGCAAUAUUACGAACU	-2.89 ± 0.29	-2.13 ± 0.38
CCAAAGCAAUAUUACGACGG	-3.1 ± 0.14	-2.43 ± 0.19
CCAAAGCAAUAUUACGAGAU	-3.13 ± 0.2	-2.5 ± 0.23
CCAAAGCAAUAUUACGAGCU	-3.38 ± 0.22	-2.14 ± 0.22
CCAAAGCAAUAUUACGAGUC	-3.73 ± 0.2	-2.04 ± 0.19
CCAAAGCAAUAUUACGCAAC	-1.96 ± 0.1	-2.53 ± 0.23
CCAAAGCAAUAUUACGCAUC	-3.89 ± 0.16	-3.05 ± 0.16
CCAAAGCAAUAUUACGCCCA	-2.49 ± 0.33	-2.72 ± 0.34
